Assay: label from the status in PepcDB records

Row | Sequence | protein production
1 | MSATFSPTAVTDLKDIQDVERLMGRIKEARAAVGEVIFGQEAVVDEVLVTLLAGGHALLIGLPGLAKTKLVQTLGTVVGLRDKRVQFTPDLMPADILGSEVLEEDAAGQRGFRFLPGPVFCQLLMADEINRASPRTQSALLQAMQEHRVSVAGHYHDLPAPFHVLATQNPIEQEGTYPLPEAQLDRFLMQVDVGYPDEAAERRMLAATTGVHQPEARAVMTPAELQAAQALVRRVPVGDSVVDAILSLVRAGRPESSPLPEVRDWVAWGPGPRASQALTLAVRARALLDGRFAPSIEDVIALAHPILRHRMALSFGARADGVTLGRVVDRLIDKIALEHHHHHH | not failed
2 | ELTAQHVMTPRVRVSALQSSATAEDVVNLTRATGLSRFPVYRDRIDEIVGMVHLKDALAIPSRDRLRTPVGRIAQPPLLVPETLPVQPLLARLRSEQPIAVVVDEYGGTAGVVTLEDIVEELVGEVRDEHDGQDLPELAVAPPEDGRPAWDADGSCRVDILQRIGLDV | not failed
3 | MLETYALKNGAVFISDAHFLPKSPHLIHTLKELLSAKPPQVFFMGDIFHVLVGYLPLDKEQQKIIDLIHALSEISQVFYFEGNHDFSMRFVFNSKVMVFERQNQPVLFQYDNKRFLLAHGDLFITKAYEFYITQLTSTWARFFLTFLNLLSFKTLYPLFKKLIYQKPVRLWELEPKELQSFIEKRLKAYQNYIKDLNIGSIDGIIEGHFHLKSGAKIPLNTPIYCPLPSFYYEQSLFKVSSSVLEPSQNKDA | failed
4 | MNSYKYLKYSQYAKQALIFINFLAVTYYVFVYLFASKYIVAKNLSHVLLDKLDIVPIAPENIFFTTLFFFAIFLIVMFYRESILNKKEEINDWLIVAEIVLMILTFISLQFSYNGLFLLVFADIFYSYANFYNVKEQKYWLLFIILGFSMLLISNFDLLSLVMRLPSLDVYISFFPSGSRLIVMFIKNFLYSLNIIVFLISLVAYIMYSVAENHKIEEELRMAARANIELNDYVSLAEKIAEDKERKRIAREIHDTLGHALTGISAGIDAVTVLVDFDPNHAKSQLKNVSDVVREGIQDVRRSLEKMRPGALEKGSLKEALLKMIADYEKLSKLQVSLHYDWDNIDLDITKEDIIFRVIQETITNSLRHGHARHVSIDMLNEDFYIIKIKDDGIGCEDFKLGYGLTQMQERLAIIGGYADFESDDGFQTMVRIPKKKGEE | failed
5 | MEKLGAVLFDDPNLSMNRTMACSTCHMQAAGFSDARESEKVGRDVSLGDDGISLGDRNAPTAAYAKFTPPFGKNAAGEYIGGQFWDGRASLLEDQAGGPPLNPVEMGMPDKAAVVKRLRENPDYVAAFGTQFGKDVFASDESAYAAMTKALASFERSDEFSTFDSKYDRFLRGEEKLTDQEELGRVLISSTQFTNCNTCHEIRGAKGLEDGLFTNHKYFNIGVPANTSVRAVNGSKPDAVDLGLAQNPAVAGDPAQRGKFKVPTLRNVAVTGPYMHNGVFKDLRTVVLFYVKYKSKKPSRQINPETGKTWDAPEVPENIAMTELTSAPALDDKRVDAIVAFLKTLTDRRYEHLLPKEDGQTAAPTAQPVLSVTPKAP | failed
6 | MGHHHHHHSHMQDRRSVCIFLPNDESLNIIINVKILCHQLLVQVCDLLRLKDCHLFGLSVIQNNEHVYME | not failed
7 | MSTKDKYDILNLCFYEKEAIMANVLFLVGSLRDGSFNHQMAKKAEAFLTDKAQVSYIDLAKIPLFNQDIETPILPEIAELRAQVDAADAIWIFSPVYNYAIPGIVKNALDWLSRSLDLSNPKGPSILQDKITTVSAVANSGHDHLFKDFQHLLPFIRTQIAGEFTGSTINPEAWGTGVLELSDETLTKLEQQVADLLAAIQ | failed
8 | MEISFTRVALLAAALFFVGCDQKPQPAKTHATEVTVLEGKTMGTFWRASIPGIDAKRSAELKEKIQTQLDADDQLLSTYKKDSALMRFNDSQSLSPWPVSEAMADIVTTSLRIGAKTDGAMDITVGPLVNLWGFGPEQQPVQIPSQEQIDAMKAKTGLQHLTVINQSHQQYLQKDLPDLYVDLSTVGEGYAADHLARLMEQEGISRYLVSVGGALNSRGMNGEGLPWRVAIQKPTDKENAVQAVVDINGHGISTSGSYRNYYELDGKRLSHVIDPQTGRPIEHNLVSVTVIAPTALEADAWDTGLMVLGPEKAKEVVRREGLAVYMITKEGDSFKTWMSPQFKSFLVSEKN | not failed
9 | MDNKVILVGGFHEIIELCEDNDIEIAGIIDNYLTNDTYWGYPIIGTDDKAKVLFETYKNVPVLITPDVPHVRYKLYHYYKSIGFQVASLISRDASISRSAIIGEGTIIQRGANLSSNIKIGQMVKVNTNANIMHDCLIGNYVTVAPNAVLLGKVEIDDKAYIGANATLLPSVKIGENVTVGAGSVVTKSVRPNTVVKGSPAK | failed
10 | MQTTAAAQERYTRTAIFLHWCMTAMIVGLIGLGFYMGQQPPSPEKYALYELHKSLGVVTVLLLFARFIWRAANPPPELPTAYSQLLRTASHLGHFALYVLMFAVPVSGWVMSAAYGRPASLFGVPIPPPVTKSEDLAELWGTIHFALGSALALVIAGHTLFALKHHFIDKDGLLWRMWVRCP | failed
11 | MADMTKQAFMRLSNPKFIMLFLILWVSLLLSSNHTLSQLADYIFFTFLGTLGAIFANSTGAGGGVVFIPMFTQLNFTEQQSIATSFAIQCFGMTAGAVTWWHHYRTEKTDLRLWQGFKRIICVTTIASIIGLNAVFFYQVNSPATLHTSFSWFSLLLGFFIVLTIYLLQPHRERSQLYYVDYIFLILIGLFGGAVTAWLSVGVGELLVIYLLLRHFDISMAVAAAVIVSAISVWTAIAQVNSDVYWQVVLFAGPGAVLGGIFAKTLVTHLSAIKLKLFFACWLLLSGVVGLI | failed
12 | MEDGKQAINEGSNDASPDLDVNGTILMNNEDFSQWSVDDVITWCISTLEVEETDPLCQRLRENDIVGDLLPELCLQDCQDLCDGDLNKAIKFKILINKMRDSKLEWKDDKTQEDMITVLKNLYTTTSAKLQEFQSQYTRLRMDVLDVMKTSSSSSPINTHGVSTTVPSSNNTIIPSSDGVSLSQTDYFDTVHNRQSPSRRESPVTVFRQPSLSHSKSLHKDSKNKVPQISTNQSHPSAVSTANTPGPSPNEALKQLRASKEDSCERILKNAMKRHNLADQDWRQYVLVICYGDQERLLELNEKPVIIFKNLKQQGLHPAIMLRRRGDFEEVAMMNGSDNVTPGGRL | failed
13 | MSLQTRKQREDAKREAWKKERQEKKALEAQQDSVSYVQAINALKNGSFVLEADNVVFRNGIMRFVSSNTNYVEVNDGQGIIQTAFTNFVYNWSPNGLGGVTVQGNVNGISMRQDKDGNVYYNYGINGIAVSATVSIVLTGGTNQASVTINPNFSGNTLTMNGYLVPYNEGHHHHHH | not failed
14 | MNALVLYFDGKCPFCAAEMRRLSEWDTQHQLAFVDIAQEGFDCSSLNVDLAALNRELHGRTSDGRLLVGIDCMIAAYTLAGHGWLVLPLRVPGLRRVLANLYRAFAGNRYTLSRWLGYGTATACDGDSCGTGNPFLSGKELTDAAEDRPARRDSRQLAVRWMYAAAIAHLLVGAAMPWAADATLFGTYHRIVEQSFWSGAAPAQARAQQVWWIALFGATLQCSAIWMLALVHLGNRTRHRMAWGWLLVGLLVWAPQDLLISLQAHVWPHVLVDAVALLTMIPPLLYLWRKDAA | failed
15 | MKATLAAPSSLTSLPYRTNSSFGSKSSLLFRSPSSSSSVSMTTTRGNVAVAAAATSTEALRKGIAEFYNETSGLWEEIWGDHMHHGFYDPDSSVQLSDSGHKEAQIRMIEESLRFAGVTDEEEEKKIKKVVDVGCGIGGSSRYLASKFGAECIGITLSPVQAKRANDLAAAQSLAHKASFQVADALDQPFEDGKFDLVWSMESGEHMPDKAKFVKELVRVAAPGGRIIIVTWCHRNLSAGEEALQPWEQNILDKICKTFYLPAWCSTDDYVNLLQSHSLQDIKCADWSENVAPFWPAVIRTALTWKGLVSLLRSGMKSIKGALTMPLMIEGYKKGVIKFGIITCQKPL | failed
16 | MLPPYNYMDNGTLKGISIDLLEAITEKMGKKVTREEIHLVSWTEGYQAALTRNNTVLFVTARTPEREQSFKWVGPIYSDKYVLFAKRDPGVTIDGPEDLKEYRIGVISDDVAAQQLLNIGLEHHHHHH | not failed
17 | MALSGGDDQVPPGGPMTVSTRLIDAGSTIMQRRLPVKQMNTHVSTFAIYGGDMSRLIGTHHYVHRVNDEFLQCAVYASDRSDAPLIGIEYVISDRLYETLSEDEQKLWHSHAYEVKSGSWAYPRLPEVVAAPELKNIAKTYGKFWCTWQIDRGDKLPMGAPELMMSPQGVGQGVLRPELVKRRDEKYNISTDDLKHTRAEIAEPEWINPMADYWKQHGKCFVLDIATVEMNRHAQFP | failed
18 | SKSTKNDVKITALSTSESQIISHMLRLLIEHDTHGKIKPTLVNNLGSSTIQHNALINGDANISGVRYNGTDLTGALKEAPIKDPKKAMIATQQGFKKKFDQTFFDSYGFANTYAFMVTKETAKKYHLETVSDLAKHSKDLRLGMDSSWMNRKGDGYEGFKKEYGFDFGTVRPMQIGLVYDALNTEKLDVALGYSTDGRIAAYDLKVLKDDKQFFPPYAASAVATNELLRQHPELKTTINKLTGKISTSEMQRLNYEADGKGKEPAVVAEEFLKKHHYFD | not failed
19 | MPPGVAVCFSSLFIRLVCMAFLTSSDKALWHLALPMIFSNITVPLLGLVDTAVIGHLDSPVYLGGVAVGATATSFLFMLLLFLRMSTTGLTAQAYGAKNPQALARTLVQPLLLALGAGALIALLRTPIIDLALHIVGGSEAVLEQARRFLEIRWLSAPASLANLVLLGWLLGVQYARAPVILLVVGNILNIVLDVWLVMGLHMNVQGAALATVIAEYATLLIGLLMVRKILKLRGISGEMLKTAWRGNFRRLLALNRDIMLRSLLLQLCFGAITVLGARLGSDIIAVNAVLMTLLTFTAYALDGFAYAVEAHSGQAYGARDGSQLLDVWRAACRQSGIVALLFSVVYLLAGEHIIALLTSLTQIQQLADRYLIWQVILPVVGVWCYLLDGMFIGATRATEMRNSMAVAAAGFALTLLTLPWLGNHALWLALTVFLALRGLSLAAIWRRHWRNGTWFAAT | failed
20 | MKNGERARAGHGSPAAPGPTAGPGPAPAPGPTVVGREAEIAEIRSRIAADRSHSSVLIVEGDPGAGKSVLLDLAVRLTRGTGQRVLRAVGSESEASLAFAGLHQMLRPVLDDLGGLPARQRSALRTALGLAEDAEDAADTPDALLVGLAVLTLVSDLSEPAPLLVVVDDAQWIDRASLDVLSFLARRMAGEPVTLLMGVRAAAVLPGFDKGYERLEIGPLSGDAANRLLDEQPKRPTGRTRARILREAAGNPLALVELARATADREPEGSGVEGPLPVTDRLEGIFARHVRHLPEATRRALLLLAAADAADAPAAARGLPEAADTVWAPAERAGLVRQDGTGVSFRHPLVRSAVYHAAPFEQRRRAHLALARQLGEEPDRRAWHLAAAAVRPDEQVSAALRETAGRARRRGGHAAAAAALERAAELSPHRADQARLLADAADTAVFTGQLGWVEHLAAGARERSDDPALIGRAALATGRLLTLGPHHTAAFALLSRVADEAAATRSPRLLDALAAAAVVRYYSGEESQRQRIEALLADVPDSAAGGALRAWVLAVSDPSGAGASLAPALPRLIAAAKGEAGSLTALAVVAWLLDRTPLAARTFDEAFGRWQAHGPLPAGLACAAGWAYLEQGRWADARSVAAEIAEVASGAGLDHAEACARTLDATVLALLGEPAEARGSAERALALVAPLESRSVAVLARRALGLAAVAEGDYDSAYAQFRAAFTEDGDLVHYHVSPTVLAELAAAAVRRGHREPAARLLERSARHLGPGMSARLFLLVERGRALLAEPERAERHFRAALAGEAGEQWPFERAQTRLDYGEWLRRQRRVAEARPLLTGALDTFRRLGARPWIDRAKAELRAAGIEADAAAPGALTELSPQQQQIVRLAAHGLTNREIGERLFLSPRTVGSHLYRVFPKLGITARAQLRDLLDDALQATGSAQ | failed
21 | MSDAPTSPRFSAATSTRLLDHAQLEALCADYDGFLLDLWGVVMDGTEAFPGALAWLARRHAEGRPVWFLSNSSSSVAEMSAGLERLGIRRDWFAGITTSGQLTIDALLQTAEYRRGGIYLAGVGLAQQSWPAEIRERFVEDIAQAALIVGVGSFPQDELEQRFAPLRGATDLPFLCANPDRVVVSGGRTVYGAGMLAELFSEEGGQVSWYGKPDPAAFRIAQRQLEARGARHILFVGDSLVTDVPGALAARIDTLWLGATGIHREALGAEFNGALDEERVRSLLHGYPIRPHFAAPGLV | failed
